Drawing on the supplement of paper PMC10567573, this text covers protein stability index for 52 sequences.

± gives the standard deviation.

The nature of the series: protein stability index of a GFP-peptide fusion (GPS, HEK-293T) (PSI 1-6); higher = more stable.
The mark [1] stands for this setting: treatment: DMSO, c terminus: a fixed tail appended.
Setting [2] is: treatment: MLN4924 1 uM, 8 h, c terminus: a fixed tail appended.
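Note: 24-mer peptide tiles fused after GFP, lentivirally expressed, FACS-sorted into six equal bins by GFP/DsRed ratio, decoded by Illumina sequencing, PSI is the read-weighted mean bin number.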

On to SSRVPVGGGPEATLSISDVRTLSE [ZBTB22], for which the protein stability index runs as follows: under setting [1], 4.49 ± 0.11; under setting [2], 4.57 ± 0.38.
The sequence SSSQEIPTMPQPIEKVSVSTQTKK [ZMYND11] came in with a protein stability index under setting [1] of 5.33 ± 0.42 and a protein stability index under setting [2] of 5.37 ± 0.23.
The corresponding values for SSSSGRLSEPDPSHTLEERVVHWY [SMOC2] are 3.14 ± 0.38 and 3.1 ± 0.22.
In the case of STETLVHVSDEDNNADLCLTDDKQ [DLC1], the protein stability index is, setting by setting: under setting [1], 5.59 ± 0.36; under setting [2], 5.59 ± 0.38.
The corresponding values for STFHTISPSFQLKAAALPPFPLGA [PLAGL1] are 2.48 ± 0.46 and 2.64 ± 0.16.
For STFRTPAVLFTGIVALYIASGLTG [ATL3], the protein stability index was found to be 3.09 ± 0.38 under setting [1] and 3.19 ± 0.24 under setting [2].
Consider STGEAGTDGDHNVYPRPPEPREFS [ZC2HC1C], for which the protein stability index runs as follows: under setting [1], 5.03 ± 0.19; under setting [2], 5.03 ± 0.16.
The corresponding values for STKAIPEKYGAVREVILKELAEAT [ZBED1] are 3.88 ± 0.32 and 4.08 ± 0.35.
The corresponding values for STPSDNIVRRFLNICENTEGAIAV [CDC14A] are 3.66 ± 0.39 and 3.66 ± 0.14.
Take SVCSCTCYRSQDYGGRSVAPQNSF [KCNK9]: the protein stability index reads like this: under setting [1], 2.44 ± 0.23; under setting [2], 2.64 ± 0.43.
The corresponding values for SVVRRCVKVLAGQEYAAKIINTKK [CAMK2A] are 2.72 ± 0.35 and 2.52 ± 0.5.
Turning to SWEVVTSMGTQRCDAGVCVLREK [KLHL12], the protein stability index was 2.89 ± 0.46 (treatment: DMSO, c terminus: native) and 3.17 ± 0.41 (treatment: MLN4924 1 uM, 8 h, c terminus: native).
Sequence SWSDNERSSSRINIPERASGPEGN [FAM104B] came in with a protein stability index under setting [1] of 4.79 ± 0.11 and a protein stability index under setting [2] of 4.73 ± 0.32.
The corresponding values for SYLREQMLNEPLVREIVKECSNIP [GAN] are 3.21 ± 0.19 and 3.39 ± 0.45.
For the sequence SYNACGVLSHIMFDGPEAWGVCEP [ZER1], the protein stability index came to 2.13 ± 0.45 under setting [1] and 2.44 ± 0.41 under setting [2].
The corresponding values for TALALEPDAIRSRSNTLRERSQVR [PCDHGC5] are 4.64 ± 0.14 and 4.69 ± 0.18.
For the sequence TCCESTQRSVSDVASGSTPAPALC [IRX6], the protein stability index by setting is: under setting [1], 4.48 ± 0.067; under setting [2], 4.51 ± 0.11.
With TCSECGKGFIQKGNLNIHQRTHTG [ZNF649], the protein stability index under setting [1] stood at 3.24 ± 0.2 and the protein stability index under setting [2] came to 3.26 ± 0.25.
The corresponding values for TCVNLLLEASNYQMMPYMQPVMQS [KLHL13] are 3.06 ± 0.41 and 2.98 ± 0.36.
In the case of TDIELEIYGMEGIPEKDMDERRRL [ZNF207], the protein stability index runs as follows: under setting [1], 4.77 ± 0.097; under setting [2], 4.86 ± 0.22.
The corresponding values for TDRSHIYTFTDTFTEKLWPLFYPG [TRIM39] are 2.16 ± 0.47 and 2.15 ± 0.56.
The corresponding values for TEKTTTVLSESSGPSNTSHSSSRD [C2CD2L] are 5.42 ± 0.15 and 5.31 ± 0.25.
Regarding TEPEQRELKTKLTKLEAEIVTLRH [TPD52L3], the protein stability index by setting is: under setting [1], 4.23 ± 0.15; under setting [2], 4.35 ± 0.26.
The corresponding values for TEQSSASRLMRRHKRRRRKQKVSR [DVL3] are 5.13 ± 0.24 and 5.16 ± 0.22.
The corresponding values for TFFPVALKKHGPICQKTATKKRKT [ZC2HC1A] are 3.24 ± 0.3 and 3.32 ± 0.3.
In the case of TFHEGKHNISHMSMDIARGLMVTC [WDFY1], the protein stability index is 2.49 ± 0.63 under setting [1] and 2.04 ± 0.14 under setting [2].
The corresponding values for THFNTAQGFRTVLELVINYQQLCI [OAS1] are 3.26 ± 0.87 and 2.76 ± 0.37.
On to THSPQKSHQCAHCEKTFNRKDHLK [PLAGL1], for which the protein stability index was 3.97 ± 0.16 under setting [1] and 4.05 ± 0.28 under setting [2].
TINPLWHIRHLGWNPDARYSEHFL [GLT8D2]: the protein stability index under setting [1] amounted to 2.39 ± 0.22 and the protein stability index under setting [2] was 2.32 ± 0.24.
TITTAAATSVTVPGAGVPSGSGGT [ZBTB22] came in with a protein stability index under setting [1] of 4.9 ± 0.19 and a protein stability index under setting [2] of 4.85 ± 0.26.
The corresponding values for TIYGLHALEQGGLRAATMSAVEAA [PYCR3] are 2.85 ± 0.65 and 3.22 ± 0.8.
TKEKKHQCDHCERCFYTRKDVRRH [PLAGL1]: the protein stability index runs as follows: under setting [1], 3.69 ± 0.48; under setting [2], 4.2 ± 0.5.
The corresponding values for TLEFENVQVLTMGNDTSPSEGTNL [HNF4A] are 4.69 ± 0.18 and 4.52 ± 0.39.
The corresponding values for TLLGNPKKRMRYFDPLRNEYFFDR [KCNA1] are 2.27 ± 0.29 and 2.3 ± 0.057.
For TLLPASLFVNSHPGIDRPGMLCSF [DCAF4], the protein stability index came to 2.31 ± 0.36 under setting [1] and 2.2 ± 0.22 under setting [2].
The corresponding values for TLNSIWNVEDHINPKLPNISLDVL [POMT2] are 2.31 ± 0.092 and 2.48 ± 0.17.
The corresponding values for TNEWEKRLSTSPVRLAARQEDAPM [EPB41L3] are 4.83 ± 0.16 and 4.51 ± 0.44.
With TNHGYRVQVENPERFSSAPCLLGS [TRIM35], the protein stability index was 3.4 ± 0.17 under setting [1] and 3.29 ± 0.31 under setting [2].
TPIPWLSSGEPVDYNVDIGIPLDG [MYOZ1]: the protein stability index runs as follows: under setting [1], 3.98 ± 0.19; under setting [2], 4.07 ± 0.2.
The corresponding values for TPLQQVSIEEILEEQRVEQQTKLE [LSM1] are 5.37 ± 0.17 and 5.34 ± 0.29.
The corresponding values for TPSPADAKAPPTACYAGAAPAPSQ [CEBPB] are 4.75 ± 0.38 and 4.75 ± 0.27.
The corresponding values for TRFILSKVPSEAPSPMPTHRSYLG [SLC6A17] are 2.73 ± 0.31 and 2.64 ± 0.26.
In the case of TRLSRLQEKEELRELNDRLAVYID [LMNB1], the protein stability index is 3.42 ± 0.25 under setting [1] and 3.5 ± 0.28 under setting [2].
The corresponding values for TRQLHEKTSQLSYYYMGFYIHSCP [ATE1] are 2.83 ± 0.71 and 2.54 ± 0.41.
The corresponding values for TRVLAEMREQYEAMAERNRRDAEE [KRT13] are 5.26 ± 0.2 and 5.18 ± 0.28.
The corresponding values for TSSLFRTEPMAWNETADLGLDIGA [CTNNB1] are 3.71 ± 0.24 and 3.82 ± 0.59.
On to TTVPEVEPPQDSHSRKTVLIKTIE [PRPH], for which the protein stability index runs as follows: under setting [1], 4.58 ± 0.3; under setting [2], 4.6 ± 0.38.
The corresponding values for TVHEVDIFRCFCPVFLHSQMLWEL [DENND6A] are 2.89 ± 0.61 and 3.33 ± 0.49.
The corresponding values for TVPDEFTVEERQTGMWWRHLVAGG [SLC25A25] are 2.77 ± 0.19 and 3 ± 0.14.
Consider TWRDPQDEVPGSQGSQASQAPPVP [NR2F2], for which the protein stability index worked out at 5.18 ± 0.19 under setting [1] and 5.16 ± 0.23 under setting [2].
The corresponding values for TWVTVKNGSGDMIFEGNSEKEIPV [CPXM2] are 4 ± 0.2 and 3.9 ± 0.081.
Consider TYNLTEVDKYVNSFVLKNFPALLS [KLHL13], for which the protein stability index reads like this: under setting [1], 2.08 ± 0.26; under setting [2], 2.28 ± 0.23.
